Positions count from the first letter of the chain named. In names and notes the source's numbering stands.
B1: [G251N, D253K, T266G]: HCPB mutant with G251N, D253K and T266G, (His)6-c-myc tag (protein, UniProt P15086 111-417, looked up, variant G251N D253K T266G)
Carboxypeptidase B: ATGHSYEKYNKWETIEAWTQQVATENPALISRSVIGTTFEGRAIYLLKVGKAGQNKPAIFMDCGFHAREWISPAFCQWFVREAVRTYGREIQVTELLDKLDFYVLPVLNIDGYIYTWTKSRFWRKTRSTHTGSSCIGTDPNRNFDAGWCEIGASRNPCDETYCGPAAESEKETKALADFIRNKLSSIKAYLTIHSYSQMMIYPYSYAYKLGENNAELNALAKATVKELASLHGTKYTYGPGATTIYPAAGNSKDWAYDQGIRYSFGFELRDTGRYGFLLPESQIRATCEETFLAIKYVASYVLEHLY
modifications: (His)6-c-myc tag
B2: [G251N,D253K]: HCPB mutant with G251N and D253K, (His)6-c-myc tag (protein, UniProt P15086 111-417, looked up, variant G251N D253K)
Carboxypeptidase B: B1 Carboxypeptidase B with G266T
modifications: (His)6-c-myc tag
B3: [A248N, G251N, D253K]: HCPB mutant with A248N, G251N and D253K, (His)6-c-myc tag (protein, UniProt P15086 111-417, looked up, variant A248N G251N D253K)
Carboxypeptidase B: B1 Carboxypeptidase B with A248N, G266T
modifications: (His)6-c-myc tag
B4: [A248S, G251N, D253K]: HCPB mutant with A248S, G251N and D253K, (His)6-c-myc tag (protein, UniProt P15086 111-417, looked up, variant A248S G251N D253K)
Carboxypeptidase B: B1 Carboxypeptidase B with A248S, G266T
modifications: (His)6-c-myc tag
B5: [G251V, D253K]: HCPB mutant with G251V and D253K (protein, UniProt P15086 111-417, looked up, variant G251V D253K)
Carboxypeptidase B: B1 Carboxypeptidase B with N251V, G266T
B6: [G251Q, D253K]: HCPB mutant with G251Q and D253K (protein, UniProt P15086 111-417, looked up, variant G251Q D253K)
Carboxypeptidase B: B1 Carboxypeptidase B with N251Q, G266T
B7: [G251N,D253R]: HCPB mutant with G251N and D253R, (His)6-c-myc tag (protein, UniProt P15086 111-417, looked up, variant G251N D253R)
Carboxypeptidase B: B1 Carboxypeptidase B with K253R, G266T
modifications: (His)6-c-myc tag

Assays:
Assay type in all cases: biochemical
[1] = Conversion of Hipp-Asp by periplasmic shockate of HCPB mutants, 24 h (Example 18); conditions: shockate concentration in reaction mixture 50 %; 24 h at 37° C.
Description: (§1) The activity of [G251T,D253K]HCPB was measured using the assay conditions described in Example 17 but using either 50 μl of a neat or 1 in 10 or 1 in 100 dilution of [G251T,D253K]HCPB crude E.coli periplasmic shockate (shockate) sample in place of purified enzyme. Samples were incubated for 24 h at 37° C. […] For other HCPB mutants, the reaction volume was 250 μl and contained 125 μl of neat shockate or 1 in 50 dilution of shockate. The shockate samples were prepared as described in Example 16. The amount of Hippuric acid produced in 24 h was quantified by HPLC as described in Example 17 and the results are shown in Table 6 and are expressed as the percentage conversion of substrate into product in 24 h at 37° C.

[2] = Conversion of Hipp-Glu by periplasmic shockate of HCPB mutants, 24 h (Example 18); conditions: shockate concentration in reaction mixture 50 %; 24 h at 37° C.
Description: as §1

[3] = Conversion of Hipp-Glu by purified HCPB mutants, 30 minutes, HPLC (Example 17); conditions: 0.5 mM substrate, 30 minutes at 37° C.
Description: (§2) Purified mutants of human CPB (D253K; [G251K,D253R]; [G251N,D253R]; [I201S,D253K]; [G251N,D253K]; [Q54R,D145A,D253K]; [G251T,D253K]; [G251S,D253K]; [A248N,G251N,D253K]; [A248S,G251N,D253K] and [S205N,G251N,D253K]—described in Examples 3, 12, 13, 16, 28, 30, 31, 32 and 33) were assayed for their ability to convert hippuryl-L-glutamic acid (Hipp-Glu—Reference Example 1), hippuryl-L-aspartic acid (Hipp-Asp—Reference Example 2) and hippuryl-L-arginine (Sigma Chemical Company—cat no. H6625) to hippuric acid using a HPLC based assay similar to that described in Example 6.
(§3) Samples were incubated for 30 minutes at 37° C. The reactions were terminated by the addition of 500 μl of 40% methanol, 60% distilled water, 0.2% trifluoro acetic acid and the amount of hippuric acid generated was quantitated by HPLC as described in Example 6 but using a mobile phase of 20% methanol, 80% 50 mM phosphate buffer, pH 6.5. Hippuric acid was detected at 230 nm. The results are shown in Table 5 and are expressed as the percentage conversion of substrate into product in 30 minutes at 37° C.

[4] = Conversion of prodrug of Example 24 to drug of Example 25 by HCPB mutants, HPLC (Example 20); conditions: enzyme 15 μg/ml; 0.5 mM prodrug of Example 24; 5 minutes at 37° C.
Description: The reaction was stopped by adding MeCN (500 μl) plus 0.2% Trifluoroacetic acid. The amount of drug produced was then quantified by HPLC.
HPLC separation was carried out as described in Example 6 except that a mobile phase of 70% MeCN, 30% distilled water and 0.1% trifluoroacetic acid was used to achieve separation of prodrug (retention time 3.8 minutes) and drug (retention time 4.9 minutes) and the compounds were detected at 260 nm. The amount of drug produced was quantified from calibration curves generated with known amounts of drug.
The amount of [Q54R,D145A,D253K]HCPB and [G251T,D253K]HCPB mutants was reduced to 0.75 μg in the reaction mixture.

[5] = Km and kcat of HCPB mutants with Hipp-Glu (Example 7); conditions: Hipp-Glu 0.25-8.0 mM; pH 7.5; 5 h at 37° C.
Description: Hipp-Glu and Hipp-Asp were diluted in range 0.25-8.0 mM and 0.25-5.0 mM respectively in 0.025 M Tris-HCL buffer, pH 7.5. Where necessary substrate samples were adjusted to pH 7.5 with 1M NaOH.
Samples were incubated for 5 h at 37° C. Reactions were terminated by the addition of 500 μl methanol/distilled water (80/20) containing 0.2% TFA. The amount of hippuric acid produced was quantified by HPLC as described in Example 6.
Km and Vmax values were calculated using the ENZFITTER software programme (Biosoft, Perkin Elmer).

[6] = Conversion of Hipp-Arg by purified HCPB mutants, 30 minutes, HPLC (Example 17); conditions: 0.5 mM substrate, 30 minutes at 37° C.
Description: as §2, §3

[7] = Conversion of Hipp-Asp by purified HCPB mutants, 30 minutes, HPLC (Example 17); conditions: 0.5 mM substrate, 30 minutes at 37° C.
Description: as §2, §3

[8] = Activity against Hipp-Asp in crude E. coli periplasmic shockate relative to D253K or D253R HCPB (Example 16)
Description: A number of other mutant HCPBs have been constructed in a similar manner to the methods described in Reference Examples 7 and 8, and Examples 12, 13, 14 and 15. In each case oligos were constructed to introduce specific changes in the gene sequence by methods similar to those described above. In some cases additional mutations were identified upon complete sequencing of the mutated gene, and these were presumably introduced during the PCR reactions. Mutants with enzyme activity against substrate analogues (see Example 18 below) have been identified, and examples of these are given in Table 4 below. […] This material is subsequently referred to as periplasmic shockate or shockate and is prepared by the following procedure.
1. A single colony was used to inoculate 75 ml of L-broth nutrient media containing 10 μg/ml tetracycline and arabinose to a final concentration of 0.01% (w/v). Incubation was performed at 20° C. with shaking (250 rpm) for about 60 hours.
2. The cells were then harvested by centrifugation at 4° C.
3. The cell pellet was re-suspended in 300 micro-liters of 20% sucrose (w/v) containing 1 mM EDTA in 200 mM Tris-HCl at pH7.5, and incubated at room-temperature for 15 minutes.
4. Periplasmic shockate was generated by the addition of 450 micro-liters of distilled water, and a further incubation at room-temperature for 15 minutes.
5. Cellular remains were removed by centrifugation, and the supernatant assayed for enzyme activity as soon as possible after preparation and kept at 4° C. prior to assay.
as §1

Row | Molecule | Hipp-Asp (% conversion) [1] [%] | Hipp-Glu (% conversion) [2] [%] | Hipp-Glu (% conversion) ([3]; enzyme 25 μg/ml) [%] | Hipp-Arg (% conversion) ([6]; enzyme 25 μg/ml) [%] | Hipp-Asp (% conversion) ([7]; enzyme 25 μg/ml) [%] | other results
1 | B1 | 3.4 | 0.95 |  |  |  | 
2 | B2 |  |  | 100 | 1.8 | 8.3 | Hipp-Glu (% conversion) ([3]; enzyme 2.5 μg/ml): 62.4%; Prodrug Hydrolysis (%) [4]: 75.9%; Km [5]: 2.3 mM; kcat, Hipp-Glu [5]: 24 s⁻¹; Hipp-Arg (% conversion) ([6]; enzyme 2.5 μg/ml): 0.4%; Hipp-Asp (% conversion) ([7]; enzyme 2.5 μg/ml): 1.9%
3 | B3 | 0 | 63.9 | 100 | 1.4 | 2.5 | Hipp-Glu (% conversion) ([3]; enzyme 0.25 μg/ml): 25.3%; Hipp-Arg (% conversion) ([6]; enzyme 0.25 μg/ml): 0%; Hipp-Asp (% conversion) ([7]; enzyme 0.25 μg/ml): 0.6%
4 | B4 | 1 | 46.1 | 86 | 0 | 1.3 | Hipp-Glu (% conversion) ([3]; enzyme 0.5 μg/ml): 10.7%; Hipp-Arg (% conversion) ([6]; enzyme 0.5 μg/ml): 0%; Hipp-Asp (% conversion) ([7]; enzyme 0.5 μg/ml): 0%
5 | B5 |  |  |  |  |  | Hipp-Asp, activity relative to D253K HCPB or D253R HCPB [8]: NAD (No activity detected)
6 | B6 |  |  |  |  |  | Hipp-Asp, activity relative to D253K HCPB or D253R HCPB [8]: NAD (No activity detected)
7 | B7 |  |  | 57 | 0 | 9.4 | Hipp-Glu (% conversion) ([3]; enzyme 2.5 μg/ml): 8.8%; Prodrug Hydrolysis (%) [4]: 66.7%; Hipp-Arg (% conversion) ([6]; enzyme 2.5 μg/ml): 0%; Hipp-Asp (% conversion) ([7]; enzyme 2.5 μg/ml): 1.4%
